Here are results for 3 substances from paper PMC7540344.

Assay [1] concerns the target YC‐StFDL1a (Solanum tuberosum cv. Desiree).
The target in a further assay is YC‐StFD (UniProt A0A1E1F9A3). The experiment in a line: bimolecular fluorescence complementation (BiFC). As to conditions: random fields from maximum intensity projections (n ≥ 10); opposing half-leaves, same imaging conditions; read off a plot.
A further assay has as its target YC‐StFDL1a (UniProt A0A1E1F9A2). Kind of assay: bimolecular fluorescence complementation (BiFC). Particulars: random fields from maximum intensity projections (n ≥ 10); opposing half-leaves, same imaging conditions; read off a plot.
For the next assay, the target named is YC‐St14‐3‐3a. The experiment in a line: bimolecular fluorescence complementation (BiFC). As to conditions: random fields from maximum intensity projections (n ≥ 10); opposing half-leaves, same imaging conditions; read off a plot.
The target of another assay is YC‐St14‐3‐3f. Kind of assay: bimolecular fluorescence complementation (BiFC). As to conditions: random fields from maximum intensity projections (n ≥ 10); opposing half-leaves, same imaging conditions; read off a plot.
Another assay deals with YC‐StCEN. The experiment in a line: bimolecular fluorescence complementation (BiFC). Particulars: random fields from maximum intensity projections (n ≥ 10); opposing half-leaves, same imaging conditions; read off a plot.

Sequence of UniProt A0A1E1F9A3 (A0A1E1F9A3 entry or part of it): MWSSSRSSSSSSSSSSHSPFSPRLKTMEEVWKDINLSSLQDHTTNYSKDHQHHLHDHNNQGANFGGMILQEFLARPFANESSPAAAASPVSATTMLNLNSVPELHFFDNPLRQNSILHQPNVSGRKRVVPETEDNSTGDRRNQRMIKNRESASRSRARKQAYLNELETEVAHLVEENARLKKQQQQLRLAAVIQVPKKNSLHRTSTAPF
Sequence of UniProt A0A1E1F9A2 (A0A1E1F9A2 entry or part of it): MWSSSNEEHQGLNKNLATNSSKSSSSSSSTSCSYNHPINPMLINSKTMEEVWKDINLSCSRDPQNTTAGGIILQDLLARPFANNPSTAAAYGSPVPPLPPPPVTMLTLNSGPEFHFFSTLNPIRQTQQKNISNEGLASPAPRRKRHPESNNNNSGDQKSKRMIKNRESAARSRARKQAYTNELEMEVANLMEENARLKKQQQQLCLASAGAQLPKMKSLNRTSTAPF

In assay [1], “StSP6A (tuberigen, FT orthologue of potato), 35S-driven GFP fusion (natural protein)” gave a luciferase activity of the p6A::LUC reporter (2.64 kb StSP6A promoter) in N. benthamiana leaves co-expressing StSP6A and estradiol-induced StFDL1a, against the reporter alone of 3 fold.

Regarding YN‐StCEN R64K; P96L; F103A; R132K, the ratio to parent turned out to be 2.7 with YC‐StFD, 2.8 with YC‐StFDL1a, 1.3 with YC‐St14‐3‐3a and 1.2 with YC‐St14‐3‐3f.

Turning to “YN‐StFDL1a (from UniProt A0A1E1F9A2) T224A”, the ratio to parent in the assay with YC‐StCEN was 3.4.
